The values below are quoted from earlier work in paper PMC6589385.

The data set has as its target His19 (position 19, …). The data set is described as follows: NMR. The following applies: Membrane-bound wild-type BM2 tetrameric channel.

The term pKa denotes the negative logarithm of the acid dissociation constant. For the protein MLEPFQILSISSFILSALHFMAWTIGHLNQIKR [Influenza B virus M2 protein (BM2) transmembrane domain, wild type (Influenza B virus)], the pKa is recorded as 5.1.
